Sequences and labels used below:
B1: GST-Tnp3 (Transportin 3), full length (natural protein)
chain: MEGAKPTLQLVYQAVQALYHDPDPSGKERASFWLGELQRSVHAWEISDQLLQIRQDVESCYFAAQTMKMKIQTSFYELPTDSHASLRDSLLTHIQNLKDLSPVIVTQLALAIADLALQMPSWKGCVQTLVEKYSNDVTSLPFLLEILTVLPEEVHSRSLRIGANRRTEIIEDLAFYSSTVVSLLMTCVEKAGTDEKMLMKVFRCLGSWFNLGVLDSNFMANNKLLALLFEVLQQDKTSSNLHEAASDCVCSALYAIENVETNLPLAMQLFQGVLTLETAYHMAVAREDLDKVLNYCRIFTELCETFLEKIVCTPGQGLGDLRTLELLLICAGHPQYEVVEISFNFWYRLGEHLYKTNDEVIHGIFKAYIQRLLHALARHCQLEPDHEGVPEETDDFGEFRMRVSDLVKDLIFLIGSMECFAQLYSTLKEGNPPWEVTEAVLFIMAAIAKSVDPENNPTLVEVLEGVVRLPETVHTAVRYTSIELVGEMSEVVDRNPQFLDPVLGYLMKGLCEKPLASAAAKAIHNICSVCRDHMAQHFNGLLEIARSLDSFLLSPEAAVGLLKGTALVLARLPLDKITECLSELCSVQVMALKKLLSQEPSNGISSDPTVFLDRLAVIFRHTNPIVENGQTHPCQKVIQEIWPVLSETLNKHRADNRIVERCCRCLRFAVRCVGKGSAALLQPLVTQMVNVYHVHQHSCFLYLGSILVDEYGMEEGCRQGLLDMLQALCIPTFQLLEQQNGLQNHPDTVDDLFRLATRFIQRSPVTLLRSQVVIPILQWAIASTTLDHRDANCSVMRFLRDLIHTGVANDHEEDFELRKELIGQVMNQLGQQLVSQLLHTCCFCLPPYTLPDVAEVLWEIMQVDRPTFCRWLENSLKGLPKETTVGAVTVTHKQLTDFHKQVTSAEECKQVCWALRDFTRLFR
notes: also called GST-Tnp3 (FL); TRN-SR2; source: E. coli BL21(DE3), purified (glutathione-Sepharose beads, dialysis); not shown: GST, N-terminal, kept
B2: GST-Tnp3 DC880 deletion mutant (domain or fragment)
chain: MEGAKPTLQLVYQAVQALYHDPDPSGKERASFWLGELQRSVHAWEISDQLLQIRQDVESCYFAAQTMKMKIQTSFYELPTDSHASLRDSLLTHIQNLKDLSPVIVTQLALAIADLALQMPSWKGCVQTLVEKYSNDVTSLPFLLEILTVLPEEVHSRSLRIGANRRTEIIEDLAFYSSTVVSLLMTCVEKAGTDEKMLMKVFRCLGSWFNLGVLDSNFMANNKLLALLFEVLQQDKTSSNLHEAASDCVCSALYAIENVETNLPLAMQLFQGVLTLETAYHMAVAREDLDKVLNYCRIFTELCETFLEKIVCTPGQGLGDLRTLELLLICAGHPQYEVVEISFNFWYRLGEHLYKTNDEVIHGIFKAYIQRLLHALARHCQLEPDHEGVPEETDDFGEFRMRVSDLVKDLIFLIGSMECFAQLYSTLKEGNPPWEVTEAVLFIMAAIAKSVDPENNPTLVEVLEGVVRLPETVHTAVRYTSIELVGEMSEVVDRNPQFLDPVLGYLMKGLCEKPLASAAAKAIHNICSVCRDHMAQHFNGLLEIARSLDSFLLSPEAAVGLLKGTALVLARLPLDKITECLSELCSVQVMALKKLLSQEPSNGISSDPTVFLDRLAVIFRHTNPIVENGQTHPCQKVIQEIWPVLSETLNKHRADNRIVERCCRCLRFAVRCVGKGSAALLQPLVTQMVNVYHVHQHSCFLYLGSILVDEYGMEEGCRQGLLDMLQALCIPTFQLLEQQNGLQNHPDTVDDLFRLATRFIQRSPVTLLRSQVVIPILQWAIASTTLDHRDANCSVMRFLRDLIHTGVANDHEEDFELRKELIGQVMNQLGQQLVSQLLHTCCFCLPPYTLPDVAEVLWEIMQVDRPTFCRWLENSLKGLP
notes: Transportin 3 (Tnp3), human, C-terminal deletion mutant DC880; made by PCR from pGST-TRN-SR2 with the Tnp3 forward primer (from the start ATG) and the DC880 reverse primer, cloned into pGEX-2T; source: E. coli BL21(DE3), purified (glutathione-Sepharose beads, Superdex 200 gel filtration); not shown: GST, N-terminal, kept
B3: GST-Tnp3 DC825 deletion mutant (domain or fragment)
chain: MEGAKPTLQLVYQAVQALYHDPDPSGKERASFWLGELQRSVHAWEISDQLLQIRQDVESCYFAAQTMKMKIQTSFYELPTDSHASLRDSLLTHIQNLKDLSPVIVTQLALAIADLALQMPSWKGCVQTLVEKYSNDVTSLPFLLEILTVLPEEVHSRSLRIGANRRTEIIEDLAFYSSTVVSLLMTCVEKAGTDEKMLMKVFRCLGSWFNLGVLDSNFMANNKLLALLFEVLQQDKTSSNLHEAASDCVCSALYAIENVETNLPLAMQLFQGVLTLETAYHMAVAREDLDKVLNYCRIFTELCETFLEKIVCTPGQGLGDLRTLELLLICAGHPQYEVVEISFNFWYRLGEHLYKTNDEVIHGIFKAYIQRLLHALARHCQLEPDHEGVPEETDDFGEFRMRVSDLVKDLIFLIGSMECFAQLYSTLKEGNPPWEVTEAVLFIMAAIAKSVDPENNPTLVEVLEGVVRLPETVHTAVRYTSIELVGEMSEVVDRNPQFLDPVLGYLMKGLCEKPLASAAAKAIHNICSVCRDHMAQHFNGLLEIARSLDSFLLSPEAAVGLLKGTALVLARLPLDKITECLSELCSVQVMALKKLLSQEPSNGISSDPTVFLDRLAVIFRHTNPIVENGQTHPCQKVIQEIWPVLSETLNKHRADNRIVERCCRCLRFAVRCVGKGSAALLQPLVTQMVNVYHVHQHSCFLYLGSILVDEYGMEEGCRQGLLDMLQALCIPTFQLLEQQNGLQNHPDTVDDLFRLATRFIQRSPVTLLRSQVVIPILQWAIASTTLDHRDANCSVMRFLRDLIHTGVANDHEEDFELRKELIGQV
notes: Transportin 3 (Tnp3), human, lacking the last C-terminal 98 residues; made by PCR from pGST-TRN-SR2 with the Tnp3 forward primer (from the start ATG) and the DC825 reverse primer, cloned into pGEX-2T; also called ΔC; C-term deleted Tnp3; source: E. coli BL21(DE3), purified (glutathione-Sepharose beads, Superdex 200 gel filtration); not shown: GST, N-terminal, kept

The target of this assay is RanQ69L-GTP (UniProt P62826 1-216, Q69L). The assay can be described thus: pull-down; GST-Tnp3 or its deletion mutants held on glutathione-Sepharose 4B beads, with RanQ69L-GTP and G2 tRNA, equimolar tRNA and Tnp3; binding buffer 50 mM Hepes pH 7.3, 200 mM NaCl, 2 mM Mg(Ac)2, 10 µM GTP; 4°C; 15% SDS-PAGE and silver staining. To be noted: both partners purified.
B1: the binding result is “binds”.
Next, B2: “binds”; B3: “binds”.

(Values after PMC3161976, “Transportin 3 Promotes a Nuclear Maturation Step Required for Efficient HIV-1 Integration” (PLoS Pathogens, 2011).)
